Measurements: US20240301031A1 (JIANGSU HENGRUI PHARMACEUTICALS, published 2024)

Tests used:
[1] = target: T1, human BAFF (10056-HNCH, Sino biological) (human, UniProt Q9Y275 134-285); assay: competition ELISA: biotin-labeled BAFF to coated TACI
T1 construct: Bought protein
Method: (§1) A receptor protein was diluted to 2 μg/mL with PBS at pH 7.4 (BasalMedia, B320) and added to a 96-well microplate (Corning, 3590) at 100 μL/well. The plate was incubated at 4° C. overnight. After the liquid was discarded, 200 μL of 1% Casein blocking solution (Thermo, 37528) was added to each well for blocking, and the plate was incubated at 37° C. for 2 h. After the blocking was completed, the blocking solution was discarded, and the plate was washed 3 times with a PBST buffer (PBS at pH 7.4 containing 0.1% tween-20) for later use. A biotin-labeled ligand protein at a fixed concentration was mixed with the antibody or fusion protein diluted in gradient, pre-incubated at 37° C. for 30 min, and added to a blocked microplate. The plate was incubated at 37° C. for 1.5 h. After the incubation was completed, the plate was washed 3 times with PBST. 100 μL of streptavidin-HRP (Invitrogen, 434323, diluted at a ratio of 1:4000) was added to each well, and the plate was incubated at 37° C. for 1 h. The supernatant was removed, and the plate was washed 3 times with PBST. […] The plate was read for absorbance values at 450 nm on a microplate reader, the curves for the inhibition of the binding of the ligands to the receptors were fitted with software, and the IC₅₀ values were calculated. […]

[2] = target: T2, human APRIL (5860-AP-010/CF, R&D Systems) (human, UniProt O75888 115-250, limits assumed); assay: competition ELISA: biotin-labeled APRIL to coated BCMA
T2 construct: Bought protein
T2 sequence (looked up): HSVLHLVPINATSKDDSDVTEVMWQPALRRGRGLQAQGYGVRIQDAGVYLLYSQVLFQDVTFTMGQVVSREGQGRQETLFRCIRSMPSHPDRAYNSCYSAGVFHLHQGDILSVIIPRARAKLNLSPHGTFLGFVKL
Method: as §1

[3] = target: T3, mouse APRIL (7907-AP/CF, R&D Systems) (mouse, UniProt Q9D777 96-241, limits assumed); assay: SPR (Biacore), sample captured on Protein A, antigen flowed, 1:1 fit
T3 construct: Bought protein
T3 sequence (looked up): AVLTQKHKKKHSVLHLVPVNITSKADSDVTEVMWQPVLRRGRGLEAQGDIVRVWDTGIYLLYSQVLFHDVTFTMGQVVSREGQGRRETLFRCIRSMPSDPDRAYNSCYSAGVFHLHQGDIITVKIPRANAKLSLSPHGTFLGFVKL

[4] = target: T4, mouse BAFF (BAF-M521y, Acro Biosystems) (mouse, UniProt Q9WU72 127-309); assay: as above
T4 construct: Bought protein

[5] = target: T2, human APRIL (5860-AP-010/CF, R&D …); assay: as above
[6] = target: T5, cynomolgus monkey APRIL (APR-CM410B, Kactus) (cynomolgus monkey); assay: as above
T5 chain: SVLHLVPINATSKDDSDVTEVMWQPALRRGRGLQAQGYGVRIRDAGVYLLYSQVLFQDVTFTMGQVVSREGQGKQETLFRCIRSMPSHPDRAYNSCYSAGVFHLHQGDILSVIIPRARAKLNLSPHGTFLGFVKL

[7] = target: T1, human BAFF (10056-HNCH, Sino biological); assay: as above
[8] = target: T1, human BAFF (10056-HNCH, Sino biological); assay: competition ELISA: biotin-labeled BAFF to coated BCMA
Method: as §1

[9] = target: T1, human BAFF (10056-HNCH, Sino biological); assay: competition ELISA: biotin-labeled BAFF to coated BAFF-R
Method: The blocking activity of the antibodies and the fusion proteins for receptors and ligands such as BAFF/BAFF-R, BAFF/BCMA, BAFF/TACI, APRIL/BCMA, APRIL/TACI, and p40/IL-12R1 was assayed by the ELISA method. The specific procedures were as follows:
A receptor protein was diluted to 2 μg/mL with PBS at pH 7.4 (BasalMedia, B320) and added to a 96-well microplate (Corning, 3590) at 100 μL/well. The plate was incubated at 4° C. overnight. After the liquid was discarded, 200 μL of 1% Casein blocking solution (Thermo, 37528) was added to each well for blocking, and the plate was incubated at 37° C. for 2 h. After the blocking was completed, the blocking solution was discarded, and the plate was washed 3 times with a PBST buffer (PBS at pH 7.4 containing 0.1% tween-20) for later use. A biotin-labeled ligand protein at a fixed concentration was mixed with the antibody or fusion protein diluted in gradient, pre-incubated at 37° C. for 30 min, and added to a blocked microplate. The plate was incubated at 37° C. for 1.5 h. After the incubation was completed, the plate was washed 3 times with PBST. 100 μL of streptavidin-HRP (Invitrogen, 434323, diluted at a ratio of 1:4000) was added to each well, and the plate was incubated at 37° C. for 1 h. The supernatant was removed, and the plate was washed 3 times with PBST. 100 μL of TMB chromogenic substrate (KPL, 5120-0077) was added to each well, and the plate was incubated at room temperature for 10-15 min. The reaction was stopped by adding 50 μL of 1 M H₂SO₄ to each well. The plate was read for absorbance values at 450 nm on a microplate reader, the curves for the inhibition of the binding of the ligands to the receptors were fitted with software, and the IC₅₀ values were calculated.

IC50 [1]: 0.779 nM
IC50 [2]: 25.1 nM
Kd [3]: 0.00671 nM
koff [3]: 1.69e-05 s⁻¹
kon [3]: 2.52e+06 M⁻¹ s⁻¹
Kd [4]: 0.121 nM
koff [4]: 8.98e-05 s⁻¹
kon [4]: 740000 M⁻¹ s⁻¹
Kd [5]: 0.0281 nM
koff [5]: 0.000658 s⁻¹
kon [5]: 2.34e+07 M⁻¹ s⁻¹
Kd [6]: 0.0436 nM
koff [6]: 0.000507 s⁻¹
kon [6]: 1.16e+07 M⁻¹ s⁻¹
Kd [7]: 0.186 nM
koff [7]: 0.00018 s⁻¹
kon [7]: 964000 M⁻¹ s⁻¹
IC50 [8]: 0.973 nM
IC50 [9]: 19.2 nM
B1: RCT-18 (Telitacicept) (Fc fusion)
chain: SRVDQEERFPQGLWTGVAMRSCPEEQYWDPLLGTCMSCKTICNHQSQRTCAAFCRSLSCRKEQGKFYDHLLRDCISCASICGQHPKQCAYFCENKLRSPVNLPPELDKTHTCPPCPAPEAEGAPSVFLFPPKPKDTLMISRTPEVTCVVVDVSHEDPEVKFNWYVDGVEVHNAKTKPREEQYNSTYRVVSVLTVLHQDWLNGKEYKCKVSNKALPSSIEKTISKAKGQPREPQVYTLPPSRDELTKNQVSLTCLVKGFYPSDIAVEWESNGQPENNYKTTPPVLDSDGSFFLYSKLTVDKSRWQQGNVFSCSVMHEALHNHYTQKSLSLSPGK
notes: Positive control; TACI part is positions 13-118 of the extracellular region of human TACI, the rest is Fc
